B1: PIGS: N267Q (protein)
parent chain: MAAAGAAATHLEVARGKRAALFFAAVAIVLGLPLWWKTTETYRASLPYSQISGLNALQLRLMVPVTVVFTRESVPLDDQEKLPFTVVHEREIPLKYKMKIKCRFQKAYRRALDHEEEALSSGSVQEAEAMLDEPQEQAEGSLTVYVISEHSSLLPQDMMSYIGPKRTAVVRGIMHREAFNIIGRRIVQVAQAMSLTEDVLAAALADHLPEDKWSAEKRRPLKSSLGYEITFSLLNPDPKSHDVYWDIEGAVRRYVQPFLNALGAAGNFSVDSQILYYAMLGVNPRFDSASSSYYLDMHSLPHVINPVESRLGSSAASLYPVLNFLLYVPELAHSPLYIQDKDGAPVATNAFHSPRWGGIMVYNVDSKTYNASVLPVRVEVDMVRVMEVFLAQLRLLFGIAQPQLPPKCLLSGPTSEGLMTWELDRLLWARSVENLATATTTLTSLAQLLGKISNIVIKDDVASEVYKAVAAVQKSAEELASGHLASAFVASQEAVTSSELAFFDPSLLHLLYFPDDQKFAIYIPLFLPMAVPILLSLVKIFLETRKSWRKPEKTD
B2: PIGS: N370Q (protein)
parent chain: B1 parent chain
B3: PIGT: N164Q (protein)
parent chain: MAAAMPLALLVLLLLGPGGWCLAEPPRDSLREELVITPLPSGDVAATFQFRTRWDSELQREGVSHYRLFPKALGQLISKYSLRELHLSFTQGFWRTRYWGPPFLQAPSGAELWVWFQDTVTDVDKSWKELSNVLSGIFCASLNFIDSTNTVTPTASFKPLGLANDTDHYFLRYAVLPREVVCTENLTPWKKLLPCSSKAGLSVLLKADRLFHTSYHSQAVHIRPVCRNARCTSISWELRQTLSVVFDAFITGQGKKDWSLFRMFSRTLTEPCPLASESRVYVDITTYNQDNETLEVHPPPTTTYQDVILGTRKTYAIYDLLDTAMINNSRNLNIQLKWKRPPENEAPPVPFLHAQRYVSGYGLQKGELSTLLYNTHPYRAFPVLLLDTVPWYLRLYVHTLTITSKGKENKPSYIHYQPAQDRLQPHLLEMLIQLPANSVTKVSIQFERALLKWTEYTPDPNHGFYVSPSVLSALVPSMVAAKPVDWEESPLFNSLFPVSDGSNYFVRLYTEPLLVNLPTPDFSMPYNVICLTCTVVAVCYGSFYNLLTRTFHIEEPRTGGLAKRLANLIRRARGVPPL
B4: PIGT: N291Q (protein)
parent chain: B3 parent chain
B5: PIGT: N327Q (protein)
parent chain: B3 parent chain
B6: GPAA1: N203Q (protein)
parent chain: MGLLSDPVRRRALARLVLRLNAPLCVLSYVAGIAWFLALVFPPLTQRTYMSENAMGSTMVEEQFAGGDRARAFARDFAAHRKKSGALPVAWLERTMRSVGLEVYTQSFSRKLPFPDETHERYMVSGTNVYGILRAPRAASTESLVLTVPCGSDSTNSQAVGLLLALAAHFRGQIYWAKDIVFLVTEHDLLGTEAWLEAYHDVNVTGMQSSPLQGRAGAIQAAVALELSSDVVTSLDVAVEGLNGQLPNLDLLNLFQTFCQKGGLLCTLQGKLQPEDWTSLDGPLQGLQTLLLMVLRQASGRPHGSHGLFLRYRVEALTLRGINSFRQYKYDLVAVGKALEGMFRKLNHLLERLHQSFFLYLLPGLSRFVSIGLYMPAVGFLLLVLGLKALELWMQLHEAGMGLEEPGGAPGPSVPLPPSQGVGLASLVAPLLISQAMGLALYVLPVLGQHVATQHFPVAEAEAVVLTLLAIYAAGLALPHNTHRVVSTQAPDRGWMALKLVALIYLALQLGCIALTNFSLGFLLATTMVPTAALAKPHGPRTLYAALLVLTSPAATLLGSLFLWRELQEAPLSLAEGWQLFLAALAQGVLEHHTYGALLFPLLSLGLYPCWLLFWNVLFWK

Columns and labels:
[1] = rescue of surface CD55 in PIGS-KO cells, flow cytometry; conditions: glycan lost; control: wild-type PIGS
[2] = rescue of surface CD55 in PIGT-KO cells, flow cytometry; conditions: glycan lost; control: wild-type PIGT
[3] = rescue of surface CD55 in GPAA1-KO cells, flow cytometry; conditions: glycan lost; control: wild-type GPAA1

Protein | enzymatic_activity [1] | enzymatic_activity [2] | also measured
B1 | no change |  | 
B2 | no change |  | 
B3 |  | no change | 
B4 |  | no change | 
B5 |  | no change | 
B6 |  |  | enzymatic_activity [3]: no change

Reference: publication PMC8465894
